In paper PMC9309400:

Columns and labels:
[1] = molecular target: Family 2B encapsulin from S. griseus, expressed in E. coli (S. griseus); experiment: cryo-EM 2D class averages
[2] = molecular target: Family 2B encapsulin from S. griseus (Q54255), expressed in S. coelicolor (S. griseus); experiment: cryo-EM 2D class averages

Row | percent of encapsulins with apparent cargo [1] [%] | percent of particles with cargo [2] [%] | Substance
1 | 34 | – | cargo protein of the Family 2B encapsulin from S. griseus, expressed in E. coli (natural protein)
2 | – | 96 | cargo protein of the encapsulin (A0A2X2LWM5), expressed in S. coelicolor (natural protein)
